One may read the stoichiometry N as a count of units in the complex or per binding partner.

Stoichiometry N data for two substances are collected here from paper PMC10653815.

Experiment [1] concerns the target MosV-RBPβ (C-terminal six-bladed β-propeller head domain of the Mossman virus receptor-binding protein, Glu202−Thr632) (Mossman virus). Description: SEC; Superdex 200 10/30 column, 10 mM Tris pH 8.0, 150 mM NaCl; compared with gel filtration standards; pre- and post-deglycosylation. For orientation: Size exclusion chromatography separates by hydrodynamic size, large species first.

For experiment [2] the target is unchanged. Description: SEC-SAXS; glycosylated protein, 45 µL at 5 mg/mL on Superdex 200 PC 3.2/30 in TBS, in-line SAXS; curves fitted with monomeric and dimeric crystal models.
Experiment [3] addresses NarV-RBPβ (C-terminal six-bladed β-propeller head domain of the Nariva virus receptor-binding protein, Glu184−Pro657) (Nariva virus). Put plainly: SEC; Superdex 200 10/30 column, 10 mM Tris pH 8.0, 150 mM NaCl; compared with gel filtration standards; pre- and post-deglycosylation.
The target is the same in experiment [4]. Put plainly: SEC-SAXS; glycosylated protein, 45 µL at 5 mg/mL on Superdex 200 PC 3.2/30 in TBS, in-line SAXS; curves fitted with monomeric and dimeric crystal models.

On to “MosV-RBPβ (C-terminal six-bladed β-propeller head domain of the Mossman virus receptor-binding protein, Glu202−Thr632) (domain or fragment)”, for which the stoichiometry N in experiment [1] and in experiment [2] was 2 each time.

Turning to “NarV-RBPβ (C-terminal six-bladed β-propeller head domain of the Nariva virus receptor-binding protein, Glu184−Pro657) (domain or fragment)”, the stoichiometry N in experiment [3] and in experiment [4] was 2 throughout.
